Assay results taken from patent US20080312140A1 (published 2008).
Starred links: 1 amine or outer side, 2 acyl side, 3 side chain; linkers in the order of their positions; H or OH if unused. No end group written: not given here. N(2-Aminoethyl)Gly = O=C(CN(CCN[*:3])[*:1])[*:2]

Target: HIV-1 envelope glycoprotein gp120 (HIV-1)
Experiment: cell-based or functional assay

B1: C2-2 (peptide)
peptide: RQGSFG-NH2
modifications: bridge (positions not given here) via N(2-Aminoethyl)Gly; also: backbone cyclised via N-(aminoethyl)Gly building unit and dicarboxylic acid bridge (m=3), structure in drawing only
- IC50 of infection inhibition (Cell Infection Inhibition Assay, CD4 expressing Hela P4 cells): 81 µM

B2: C2-3 (peptide)
peptide: RQGSFG-NH2
modifications: bridge (positions not given here) via N(2-Aminoethyl)Gly; also: backbone cyclised via N-(aminoethyl)Gly building unit and dicarboxylic acid bridge (m=4), structure in drawing only
- IC50 of infection inhibition (Cell Infection Inhibition Assay, CD4 expressing Hela P4 cells): 81 µM

B3: C2-1 (peptide)
peptide: RQGSFG-NH2
modifications: bridge (positions not given here) via N(2-Aminoethyl)Gly; also: backbone cyclised via N-(aminoethyl)Gly building unit and dicarboxylic acid bridge (m=2), structure in drawing only
- IC50 of infection inhibition (Cell Infection Inhibition Assay, CD4 expressing Hela P4 cells): 33 µM
